Reference: the supplement of paper PMC9170038

Key:
MS2 coat protein [1] = test: apparent KD of MS2 coat protein, switch OFF state (with FMN for OFF switches, without FMN for ON switches); designed switch direction (-1 OFF switch, 1 ON switch): -1; higher = weaker reporter binding; conditions: FMN input: 0 or 200 uM; Eterna round: R93 (includes R88 designs)
How it was run: (§1)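 Values are apparent KD, taken as the median for each design of fits to normalised binding curves from individual clusters. The designed RNA switches were transcribed on-chip from Illumina sequencing clusters and exposed to SNAP-549-labelled MS2 coat protein at twofold increasing amounts from 0.7 or 1.5 nM to 3 µM. Titration used 100 mM Tris-HCl pH 7.5, 80 mM KCl and 4 mM MgCl2, without or with constant ligand.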

MS2 coat protein [2] = test: apparent KD of MS2 coat protein, switch ON state; designed switch direction (-1 OFF switch, 1 ON switch): -1; higher = weaker reporter binding; conditions: FMN input: 0 or 200 uM; Eterna round: R93 (includes R88 designs)
How it was run: as §1

CUGCAGUAAGGAUAUACAUGAGGAUCACCCAUGUAGGAACUUACAGAACGAAACGCAUGUAGAAGGUACCAGAA [Enususge]
apparent KD of MS2 coat protein (MS2 coat protein [1]): 0.0143 µM | apparent KD of MS2 coat protein (MS2 coat protein [2]): 0.0142 µM

CUUAUGUGAGGAUAUCAGUAGUAAAAAAAAAAAAUUACUACUGAGAAGGCACAUGAGGAUCACCCAUGUGCCUU [EX4 323: Super Stable 23]
apparent KD of MS2 coat protein (MS2 coat protein [1]): 0.0142 µM | apparent KD of MS2 coat protein (MS2 coat protein [2]): 0.0144 µM

GAAAAACAUGAGGAUCACCCAUGUGAGGAUAUGAACGAAAUAAAAUAAAAAUAAAAGUUCAGAAGGCACAAAAG [Mat - Exclusion 1 - Eli mod - D12]
apparent KD of MS2 coat protein (MS2 coat protein [1]): 0.0699 µM | apparent KD of MS2 coat protein (MS2 coat protein [2]): 0.034 µM

GAAAAACAUGAGGAUCACCCAUGUUAGGAUAUGCUAUGGAAAAUAAAAAAUAAACAUAGCAGAAGGAACAAAAG [Mat - Exclusion 1 - Eli mod - D31]
apparent KD of MS2 coat protein (MS2 coat protein [1]): 0.0367 µM | apparent KD of MS2 coat protein (MS2 coat protein [2]): 0.0203 µM

GAAAACAGAGGAUAUACAUAAGCUAGACGAAAGUCUAGCAAACAUGAGGAUCACCCAUGUAGAAGGCUGAAGAA [Meechl Mod]
apparent KD of MS2 coat protein (MS2 coat protein [1]): 0.0277 µM | apparent KD of MS2 coat protein (MS2 coat protein [2]): 0.0292 µM

GAAAACAGAGGAUAUACAUGAUUAUGACGAAAGUCAUAAAAACAUGAGGAUCACCCAUGUAGAAGGCUGAAGAA [Meechl MS2 Ex2 2]
apparent KD of MS2 coat protein (MS2 coat protein [1]): 0.164 µM | apparent KD of MS2 coat protein (MS2 coat protein [2]): 0.13 µM

GAAAACUGAGGAUAUACUUUGGGAAAAGAAAAGAUGAUGUUACAUGAGGAUCACCCAUGUAGAAGGCAGAAAAG [Mat - Exclusion 2 - Mod - D151]
apparent KD of MS2 coat protein (MS2 coat protein [1]): 0.0345 µM | apparent KD of MS2 coat protein (MS2 coat protein [2]): 0.0253 µM

GAAAAGUCAGGAUAUACAGAAAAAAAAACGAAAAAAAAUCUGUAGAAGGGACAUGAGGAUCACCCAUGUUAAAA [Mat - Exclusion 4 - Mayanna - D125]
apparent KD of MS2 coat protein (MS2 coat protein [1]): 0.024 µM | apparent KD of MS2 coat protein (MS2 coat protein [2]): 0.0469 µM

GAAAAGUCAGGAUAUAUGCGAAAAAUAAAAAAAAUAAAAACAUAGAAGGGACAUGAGGAUCACCCAUGUUAAAG [Mat - Exclusion 4 - Mayanna - D135]
apparent KD of MS2 coat protein (MS2 coat protein [1]): 0.0254 µM | apparent KD of MS2 coat protein (MS2 coat protein [2]): 0.0377 µM

GAAAAGUGAGGAUAUAGCAAAGGUCACGAAAGUGACAAAGGCUAGAAGGCACAUGAGGAUCACCCAUGUCCAAG [Mat - Exclusion 4 - Eli mod - D99]
apparent KD of MS2 coat protein (MS2 coat protein [1]): 0.0499 µM | apparent KD of MS2 coat protein (MS2 coat protein [2]): 0.0203 µM

GAAAAGUGAGGAUAUGUCAAAAGUCACAAAAGUGACAAAAGACAGAAGGCACAUGAGGAUCACCCAUGUGGAAG [Mat - Exaclusion 4 - Eli mod - D52]
apparent KD of MS2 coat protein (MS2 coat protein [1]): 0.0411 µM | apparent KD of MS2 coat protein (MS2 coat protein [2]): 0.0338 µM

GAAAAGUGAGGAUAUGUCAAAAGUCACAAAAGUGACAAAAGACAGAAGGCACAUGAGGAUCACCCAUGUGGGAA [Mat - Exaclusion 4 - Eli mod - D50]
apparent KD of MS2 coat protein (MS2 coat protein [1]): 0.211 µM | apparent KD of MS2 coat protein (MS2 coat protein [2]): 0.0585 µM

GAAAAGUGAGGAUAUUCGGAUAGGAAAACGAAAACCUAUCCGAAGAAGGCACAUGAGGAUCACCCAUGUGGGAA [Mat - Exaclusion 4 - Eli mod - D49]
apparent KD of MS2 coat protein (MS2 coat protein [1]): 0.119 µM | apparent KD of MS2 coat protein (MS2 coat protein [2]): 0.0803 µM

GAAAGGGCAGGAUAUGCAGAGAGAGAGAGAGAGAGAAAAAAACAUGAGGAUCACCCAUGUAGAAGGGCCGAAAG [salish99-ex2-06]
apparent KD of MS2 coat protein (MS2 coat protein [1]): 0.0524 µM | apparent KD of MS2 coat protein (MS2 coat protein [2]): 0.0385 µM

GAAAUGUCAGGAUAUGCGAAGGCGUCUGAUAGACGAGGAUAGCAGAAGGGACAUGAGGAUCACCCAUGUAAAAA [Opal 13]
apparent KD of MS2 coat protein (MS2 coat protein [1]): 0.22 µM | apparent KD of MS2 coat protein (MS2 coat protein [2]): 0.117 µM

GAACGCCUAGGAUAUACAUGAGGAUCACCCAUGUCUCCCAGUCCUGGAGUGACCUCUAGUAGAAGGAGGAAUAA [Ertein]
apparent KD of MS2 coat protein (MS2 coat protein [1]): 0.115 µM | apparent KD of MS2 coat protein (MS2 coat protein [2]): 0.342 µM

GAAGAACAUGAGGAUCACCCAUGUGAGGAUAUACAGAAGGGAAUAAAAUAACCAGAAAGUAGAAGGCACAAGAA [Ex 1 May 40]
apparent KD of MS2 coat protein (MS2 coat protein [1]): 0.0457 µM | apparent KD of MS2 coat protein (MS2 coat protein [2]): 0.0351 µM

GAGGAACAUGAGGAUCACCCAUGUGAGGAUAUCGGAGGAGGAGGAGGAGGAGGAGGAGCGAGAAGGUACAAGAG [salish99-Ex1-03]
apparent KD of MS2 coat protein (MS2 coat protein [1]): 0.0298 µM | apparent KD of MS2 coat protein (MS2 coat protein [2]): 0.0227 µM

GAUAAACAUGAGGAUCACCCAUGUCAGGAUAUGCACUAACUAACUAACUAACUAGCUAGCAGAAGGGACACUAC [Amethyst 86]
apparent KD of MS2 coat protein (MS2 coat protein [1]): 0.0334 µM | apparent KD of MS2 coat protein (MS2 coat protein [2]): 0.0249 µM

GAUAGGCGAGGAUAUACAUGAGGAUCACCCAUGUAAGUAAGCCUGGCUGAAACUGAAUGUAGAAGGCGCACAUU [Ex3Try2_Neo]
apparent KD of MS2 coat protein (MS2 coat protein [1]): 0.0396 µM | apparent KD of MS2 coat protein (MS2 coat protein [2]): 0.0162 µM
